# From the supplement of paper PMC9732359
# ± gives the uncertainty stated by the source.
# Experiment: protein stability index of a GFP-peptide fusion (yeast GPS) (PSI 1-4); higher = more stable; sorted into four equal gates, so the index is relative within each strain
# Settings: san1∆
# Method in brief: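 Peptides tiling yeast proteins in 17-residue segments were fused downstream of GFP, with Cherry expressed from the same plasmid. As a pooled library in yeast, mid-log cultures grown in leucine-free medium were sorted into four equal gates by GFP/Cherry fluorescence ratio. Gate plasmids were PCR-amplified and Illumina-sequenced, and barcodes linked reads to strains. Each peptide received a protein stability index equal to the sum of each gate's read frequency times its gate number.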
row,Sequence,protein stability index
1,KGLKENDVAVEKTGKSA [BRR2],2.73 ± 0.21
2,KGPAIDELSSKELVECH [NNF1],2.78 ± 0.077
3,KGRAYKRLLYTRRFVNV [RPS30A],2.81 ± 0.069
4,KGRNNESNNKKYPIFTG [YDL088C/ASM4],2.67 ± 0.059
5,KGTEASNDIIDKPYLLR [YDL116W/NUP84],3.34 ± 0.1
6,KIAGIEGHLAEIRAKEY [SRB2],3.4 ± 0.071
7,KIALMNIPKPLNSYHIK [RGR1],1.69 ± 0.041
8,KIAYRGVKDCQEGLITT [SSN2],2.91 ± 0.22
9,KIDLLSGQFYFRNPTPL [RGR1],3.12 ± 0.076
10,KIEGVATPQDAQFYLGK [RPL33A],3.3 ± 0.063
11,KIKDVQQQIESNEEQRN [SMC3],3.18 ± 0.076
12,KIKQYERLRFYKDTFTL [RRI1],2.4 ± 0.049
13,KILGKGRIPNVPVIVKA [RPL28],2.37 ± 0.085
14,KILITYGSSPKLLATST [SRB8],1.48 ± 0.091
15,KILMYQYNIPPEREVLV [RRP6],1.77 ± 0.2
16,KILNIIKCSQSSHLSDN [POP5],2.28 ± 0.065
17,KILNLEKPLILADYIVE [NUT1],1.22 ± 0.18
18,KIMQSISNKDVIFKIRD [SRB4],3.22 ± 0.11
19,KIMVAEWYLSHLCSGIL [SRB8],1.24 ± 0.077
20,KINDESSIDKKSSILTV [YML103C/NUP188],2.56 ± 0.059
21,KINRPPVSVSRIARALK [RPL18A],1.97 ± 0.13
22,KINTRGAEDPKVLINDQ [SWI1],3.26 ± 0.14
23,KIQFILEQMELSILKGD [RPN5],2.35 ± 0.29
24,KIVFILDSDSENDLSFA [RRI2],2.09 ± 0.12
25,KIYNFGELLHHPIMETI [RPN9],1.84 ± 0.11

row,Sequence,protein stability index
1,KIYRVGKGDDEANGATS [RPL3],3.67 ± 0.045
2,KKAKLVLIANDVDPIEL [RPL8A],3.09 ± 0.07
3,KKEATKPAFSFGINTNT [YLR335W/NUP2],3.26 ± 0.038
4,KKFATVPTGGASSAAAG [RPP2B],2.89 ± 0.079
5,KKHGKTDYFLPKNYSLH [YJL039C/NUP192],2.71 ± 0.049
6,KKIENTMLENITLRGVE [RPO21],2.98 ± 0.07
7,KKKRKKKNKSAIDGIFG [RMP1],2.81 ± 0.042
8,KKKTKKELELERKERED [SWI1],3.51 ± 0.051
9,KKLESQESLVKLFTTNE [RPN5],3.22 ± 0.081
10,KKLLEVHDIFSKIFNES [CDC53],2.77 ± 0.057
11,KKMMNTSDSESTLYKYL [SWI3],2.79 ± 0.083
12,KKNDMNTSAKNKNGENK [SIR4],3.03 ± 0.054
13,KKNLGRLTRLWIKNEQE [PRP8],1.25 ± 0.19
14,KKNNLEFGTYGKYVIAG [RPN14],1.79 ± 0.14
15,KKRESGVEEEEELKDSE [SNF2],3.3 ± 0.12
16,KKRIRLPSEERIQKIIS [YIL149C/MLP2],2.71 ± 0.081
17,KKTVAGGAYTVSTAAAA [RPL43A],2.15 ± 0.074
18,KKVKSASKKSGGDVVKF [SMC4],2.89 ± 0.21
19,KKVMPAIVVRQAKSWRR [RPL23A],2.64 ± 0.16
20,KKVSRRNARAARAAKIA [RPL13B],2.63 ± 0.18
21,KKVTAFVPNDGCLNFVD [RPS23A],3.11 ± 0.032
22,KKWPQFYAAVQKNYADP [SIN4],2.77 ± 0.13
23,KLDASKKQQAALTNELN [YIL149C/MLP2],2.68 ± 0.08
24,KLDSKKILPTDIQLKNL [SRP68],2.79 ± 0.061
25,KLIAAAEDGSRSTKDMI [SNF6],3.44 ± 0.14

row,Sequence,protein stability index
1,KLILHAIHIFESYYNWK [YML103C/NUP188],1.58 ± 0.081
2,KLKGLMKLNILDERFAS [IRR1],2.4 ± 0.16
3,KLKLLRMERIKDHLLLE [RPT2],2.12 ± 0.092
4,KLKQQSSTDIPSYTHVL [RRI1],2.52 ± 0.045
5,KLKRNSDRREHDEKLSD [LIN1],3.22 ± 0.11
6,KLLKQPKFDVGALMALH [RPS1A],1.9 ± 0.084
7,KLLKSLLLNYLELIGVL [MED7],1.14 ± 0.098
8,KLLQLFLTPMDSIDLAP [YML103C/NUP188],1.76 ± 0.092
9,KLNTLSEILSFDPVYTT [YML103C/NUP188],2.85 ± 0.073
10,KLNVVGWFHSHPGYDCW [RRI1],2.61 ± 0.13
11,KMENFEFLPLSLHILMI [SRB8],1.91 ± 0.076
12,KMKIQETISKLNEYKRE [SMC2],2.35 ± 0.084
13,KMVAKGLNDLVEQYKFR [BRR2],3.03 ± 0.11
14,KMVGLRGFNNQIMQLKK [SNF2],3.04 ± 0.068
15,KNEKLILEESLNAIILK [SMC3],2.18 ± 0.17
16,KNEPDYSKAKYPDLQPF [CDC53],2.06 ± 0.13
17,KNGAQDLVLQILEDTAT [RRI2],3.33 ± 0.054
18,KNGTIVKKAVTVHSKSR [RPL19A],2.45 ± 0.079
19,KNINIGKHSQEQNSSSA [SIR4],3.29 ± 0.1
20,KNKDSLVSNPHEIYGSM [SRB4],2.96 ± 0.07
21,KNMPVIYNNIVSNIEGI [RGR1],2.5 ± 0.05
22,KNRSNRKRFHSQSKGTV [YOR098C/NUP1],2.89 ± 0.16
23,KNSFQQALQMKAMDIPI [SWP82],1.37 ± 0.064
24,KPENKTDKVSLSQPVSA [SIR4],2.49 ± 0.063

# Same assay, conditions: ubr1∆
row,Sequence,protein stability index
1,KGGKGLGKGGAKRHRKI [HHF1],3.59 ± 0.053
2,KGPAIDELSSKELVECH [NNF1],2.82 ± 0.047
3,KGRAYKRLLYTRRFVNV [RPS30A],2.76 ± 0.039
4,KGRNNESNNKKYPIFTG [YDL088C/ASM4],2.9 ± 0.049
5,KGTEASNDIIDKPYLLR [YDL116W/NUP84],2.76 ± 0.11
6,KIAGIEGHLAEIRAKEY [SRB2],3.31 ± 0.058
7,KIALMNIPKPLNSYHIK [RGR1],1.83 ± 0.022
8,KIAYRGVKDCQEGLITT [SSN2],2.7 ± 0.22
9,KIDLLSGQFYFRNPTPL [RGR1],2.82 ± 0.074
10,KIEGVATPQDAQFYLGK [RPL33A],3.25 ± 0.083
11,KIKDVQQQIESNEEQRN [SMC3],2.85 ± 0.11
12,KIKQYERLRFYKDTFTL [RRI1],2.81 ± 0.039
13,KILGKGRIPNVPVIVKA [RPL28],3.24 ± 0.054
14,KILITYGSSPKLLATST [SRB8],1.53 ± 0.042
15,KILMYQYNIPPEREVLV [RRP6],1.72 ± 0.087
16,KILNIIKCSQSSHLSDN [POP5],2.09 ± 0.053
17,KILNLEKPLILADYIVE [NUT1],1.3 ± 0.07
18,KIMQSISNKDVIFKIRD [SRB4],2.72 ± 0.12
19,KIMVAEWYLSHLCSGIL [SRB8],1.47 ± 0.049
20,KINDESSIDKKSSILTV [YML103C/NUP188],2.52 ± 0.056
21,KINRPPVSVSRIARALK [RPL18A],2.66 ± 0.18
22,KINTRGAEDPKVLINDQ [SWI1],3.11 ± 0.054
23,KIQFILEQMELSILKGD [RPN5],2.65 ± 0.19
24,KISDDELERILKELSNL [RPB4],3 ± 0.1
25,KIVFILDSDSENDLSFA [RRI2],2.59 ± 0.047
26,KIYNFGELLHHPIMETI [RPN9],2.91 ± 0.11

row,Sequence,protein stability index
1,KIYRVGKGDDEANGATS [RPL3],3.22 ± 0.11
2,KKAKLVLIANDVDPIEL [RPL8A],2.83 ± 0.072
3,KKALKVRTSATFRLPKT [RPL25],3.18 ± 0.13
4,KKEATKPAFSFGINTNT [YLR335W/NUP2],3.35 ± 0.056
5,KKFATVPTGGASSAAAG [RPP2B],3.06 ± 0.067
6,KKHGKTDYFLPKNYSLH [YJL039C/NUP192],2.35 ± 0.049
7,KKIENTMLENITLRGVE [RPO21],3.09 ± 0.077
8,KKKRKKKNKSAIDGIFG [RMP1],3.03 ± 0.038
9,KKKTKKELELERKERED [SWI1],3.31 ± 0.043
10,KKLESQESLVKLFTTNE [RPN5],2.88 ± 0.12
11,KKLLEVHDIFSKIFNES [CDC53],2.66 ± 0.05
12,KKMMNTSDSESTLYKYL [SWI3],2.75 ± 0.05
13,KKNDMNTSAKNKNGENK [SIR4],3.12 ± 0.066
14,KKNLGRLTRLWIKNEQE [PRP8],2.5 ± 0.25
15,KKNNLEFGTYGKYVIAG [RPN14],2.1 ± 0.065
16,KKRIRLPSEERIQKIIS [YIL149C/MLP2],2.72 ± 0.04
17,KKTVAGGAYTVSTAAAA [RPL43A],2.15 ± 0.05
18,KKVKSASKKSGGDVVKF [SMC4],3.12 ± 0.16
19,KKVMPAIVVRQAKSWRR [RPL23A],2.99 ± 0.063
20,KKVSRRNARAARAAKIA [RPL13B],2.69 ± 0.045
21,KKVTAFVPNDGCLNFVD [RPS23A],2.85 ± 0.035
22,KKWPQFYAAVQKNYADP [SIN4],2.18 ± 0.075
23,KLDASKKQQAALTNELN [YIL149C/MLP2],2.17 ± 0.062
24,KLDSKKILPTDIQLKNL [SRP68],2.69 ± 0.059
25,KLIAAAEDGSRSTKDMI [SNF6],3.54 ± 0.087
26,KLILHAIHIFESYYNWK [YML103C/NUP188],1.82 ± 0.056

row,Sequence,protein stability index
1,KLKGLMKLNILDERFAS [IRR1],2.35 ± 0.064
2,KLKLLRMERIKDHLLLE [RPT2],1.86 ± 0.054
3,KLKQQSSTDIPSYTHVL [RRI1],2.49 ± 0.035
4,KLKRNSDRREHDEKLSD [LIN1],2.96 ± 0.13
5,KLLKQPKFDVGALMALH [RPS1A],1.9 ± 0.069
6,KLLKSLLLNYLELIGVL [MED7],1.33 ± 0.058
7,KLLQLFLTPMDSIDLAP [YML103C/NUP188],1.36 ± 0.038
8,KLNTLSEILSFDPVYTT [YML103C/NUP188],2.77 ± 0.078
9,KLNVVGWFHSHPGYDCW [RRI1],2.38 ± 0.064
10,KLRGDLREAPADYWTHA [SNF6],2.99 ± 0.12
11,KMENFEFLPLSLHILMI [SRB8],2.85 ± 0.06
12,KMKIQETISKLNEYKRE [SMC2],1.93 ± 0.036
13,KMVAKGLNDLVEQYKFR [BRR2],3.14 ± 0.096
14,KMVGLRGFNNQIMQLKK [SNF2],3.35 ± 0.041
15,KNEKLILEESLNAIILK [SMC3],2.65 ± 0.064
16,KNEPDYSKAKYPDLQPF [CDC53],2.5 ± 0.085
17,KNGAQDLVLQILEDTAT [RRI2],3.18 ± 0.072
18,KNGTIVKKAVTVHSKSR [RPL19A],1.96 ± 0.068
19,KNINIGKHSQEQNSSSA [SIR4],3.25 ± 0.057
20,KNKDSLVSNPHEIYGSM [SRB4],3.26 ± 0.14
21,KNMPVIYNNIVSNIEGI [RGR1],2.56 ± 0.041
22,KNRSNRKRFHSQSKGTV [YOR098C/NUP1],3.26 ± 0.19
23,KNSFQQALQMKAMDIPI [SWP82],1.59 ± 0.038
24,KPENKTDKVSLSQPVSA [SIR4],2.14 ± 0.037
